Laboratory results: patent US20260201069A1, “ANTIBODIES THAT SPECIFICALLY BIND MODIFIED OLIGONUCLEOTIDES” (Hoffmann-La Roche Inc., priority 2024, published 2026)

B1: mAb 5391: anti-LNA antibody produced by clone 1.2.8 in the bivalent standard Y-shaped IgG format (antibody, V domains shown)
VH: QIQLRESGPGLVAPSQSLSITCTVSGFSLTNYGVHWVRQPPGKGLEWLGVIWAGGSTIYNSALMSRLSISRDNSKSQVFLEMNSLQTYDTAMYYCARDRPFDGFFFSYWGQGTALTVSS
VL: DVLMTQTPLSLPVSLGDQASISCRSSQAIVHRSGNTFLEWYLQKPGQSPKLLIYKVSNRFSGVPDRFSGSGSGTDFTLKINRVEAEDLGVYYCFQGSHVPYTFGSGTKLEIK
B2: mAb 5392: anti-LNA antibody produced by clone 1.7.15 in the bivalent standard Y-shaped IgG format (antibody, V domains shown)
VH: QVQLKQSGPSFVQPSQSLSITCTVSGFSLTTYGVHWVRQSPGKGLEWLGVIWRSGGTDYNAAFMSRLSITKDNSKSQVFFKMNSLQTDDTAIYYCTNLYYWGQGTTLTVSS
VL: DIVMTQATFSNPVTLGTSVSISCRSSKSLLRSNGITYLYWYLQKPGQSPQLLIYQMSNLASGVPDRFSSSGSGTDFTLRISRVEAEDVGVYYCGQNLELPYTFGSGTKVEIK
B3: mAb 5393: anti-LNA antibody produced by clone 1.9.21 in the bivalent standard Y-shaped IgG format (antibody, V domains shown)
VH: QVQLQQSGAELVRPGTSVKVSCKASGYAFTNYLIEWIKQRPGQGLEWIGVINPGSGGTNYNEKFRVKATLTADKSSSTAYMQLSSLTSDDSAVYFCARGGGYYWGQGTLVTVSA
VL: DIVMTQAAPSVPVTPGESVSISCRSSKSLLHSNGNTYLFWFLQRPGQSPQVLIYRMSNLASGVPDRFSGSGSGTAFTLRISRVEAEDVGVYYCMQHLEYPYTFGSGTRLEIK

Legend:
ASO 297 = assay: SPR (BIAcore) binding kinetics and affinity; conditions: analyte ASO 297, bivalent IgG format, 25° C.
Procedure: (§1) In more detail, LNA binding of the antibodies according to the current invention was characterized by surface plasmon resonance (SPR) using a BIAcore instrument with a HEPES-based running and dilution buffer at 25° C. About 100-200 resonance units (RU) of an anti-LNA antibody with an Fc-region of the human IgG1 subclass and the mutations P329G, L234A and L235A (according to Kabat EU index; human IgG Fc-PGLALA) or an anti-LNA Fab fragment with human CL and CH1 (kappa, IgG1 isotype), respectively, was captured on the surface of a Series S Sensor Chip CM3 derivatized by standard amine coupling with either a mouse anti-human IgG Fc-PGLALA antibody or a goat anti-human F(ab′2) antibody with final total surface densities of approximately 5000 RU. Different LNA-modified ASOs were passed over the derivatized SPR chip surface by injecting the respective solutions in a 1:3 dilution series up to a final concentration of 1000 nM. Association was monitored for 3 min and dissociation for 5 min at a flow rate of 30 μl/min each. Bulk refractive index differences were corrected by subtracting blank injections and by subtracting the response obtained from the reference flow cell without captured antibody. Curve fitting was performed using the 1:1 Langmuir binding model within the BIAcore evaluation software.
(§2) To assess the binding specificities and affinities of the LNA-binding antibodies according to the current invention, surface plasmon resonance was used as described, e.g., in WO 2020/141117 and WO 2022/175217.
(§3) To assess the specificities and affinities of LNA-binding antibodies, surface plasmon resonance was done as described in WO 2020/141117 and WO 2022/175217. ASO binding was investigated by surface plasmon resonance (SPR) using a BIAcore T200 instrument (Cytiva). As a running and dilution buffer, HEPES buffered saline (HBS) containing 0.05% PS20 was used, the temperature was set to 25° C. For capturing anti-LNA Fabs or complete anti-LNA antibodies to a Series S Sensor Chip CM3 (Cytiva), either a mouse anti-human IgG antibody (Roche Diagnostics GmbH) or a goat anti-human F(ab′2) antibody (Jackson ImmunoResearch) was immobilized using standard amine coupling chemistry with final total surface densities of approximately 5000 resonance units (RU). The anti-LNA antibodies were captured to the surface by an injection for 30 sec., leading to response levels of approx. 100-200 RU. Different ASO molecules were injected in a 1:3 dilution series up to 1000 nM. Association was monitored for 3 min. and dissociation for 5 min. at a flow rate of 30 μl/min each. Subsequently, the surface was regenerated by injecting 10 mM NaOH (anti-human IgG antibody surface) or 10 mM Glycine pH 1.7 (anti-human IgG F(ab′2) antibody surface) for 60 sec. Bulk refractive index differences were corrected by subtracting blank injections and by subtracting the response obtained from the reference flow cell without captured antibody. Curve fitting was performed using the 1:1 Langmuir binding model within the BIAcore evaluation software.

ASO 827 = assay: SPR (BIAcore) binding kinetics and affinity; conditions: analyte ASO 827, bivalent IgG format, 25° C.
Procedure: as §1, §2, §3

ASO 420 = assay: SPR (BIAcore) binding kinetics and affinity; conditions: analyte ASO 420, bivalent IgG format, 25° C.; for Kd: read-out: K
Procedure: as §1, §2, §3

ASO 042 = assay: SPR (BIAcore) binding kinetics and affinity; conditions: analyte ASO 042, bivalent IgG format, 25° C.
Procedure: as §1, §2, §3

[1] = tested on: fusion 2899 (antibody-ASO 918 conjugate); assay: SPR (BIAcore) binding kinetics and affinity; conditions: analyte fusion 2899, bivalent IgG format, 25° C.
Procedure: as §1, §2, §3

[2] = tested on: fusion 2489 (antibody-ASO 918 conjugate); assay: SPR (BIAcore) binding kinetics and affinity; conditions: analyte fusion 2489, bivalent IgG format, 25° C.
Procedure: as §1, §2, §3

[3] = tested on: LNA-modified ASOs and antibody-ASO conjugates; assay: SPR binding; conditions: summary in words
Procedure: as §1
Further analyses of the pan anti-LNA antibody according to the invention produced by clone 1.9.21 a trivalent, bispecific format was used. This trivalent, bispecific format comprises an IgG1 Fc-region (with knobs-into-holes-cys1 mutations) to which at one of the N-termini of the Fc-region a germline Fab (DP47; SEQ ID NO: 137 and 138) has been fused and at both of the C-termini of the Fc-region each one anti-LNA Fab (fab 0699) according to the current invention produced by clone 1.9.21 has been fused (fusion 1861). […]
To assess the specificities and affinities of LNA-binding antibodies, surface plasmon resonance was done as described in WO 2020/141117 and WO 2022/175217. […] Association was monitored for 3 min. and dissociation for 5 min. at a flow rate of 30 μl/min each. […]

| Koff (ASO 297; oos = out of specification) | Kon (ASO 042; oos = out of specification) | Molecule | K (ASO 297) | K (ASO 827) | K (ASO 420) | K (ASO 042) | K [1] | K [2] | binding to the tested analytes (ASOs and antibody-ASO conjugates) [3] | Kd (ASO 420) [nM] | Kd (ASO 297; read-out: K) [nM] | Kd (ASO 827; read-out: K) [nM] | Kd (ASO 042; read-out: K) [nM] | Kd ([1]; read-out: K) [nM] | Kd ([2]; read-out: K) [nM] |
| --- | --- | --- | --- | --- | --- | --- | --- | --- | --- | --- | --- | --- | --- | --- | --- |
|  |  | B1 | no binding | no binding | no binding | no binding | no/low binding | no/low binding | no to very low binding to all of the analytes tested |  |  |  |  |  |  |
| oos |  | B2 |  | no binding |  | no binding | no/low binding | no/low binding | binds to some of the ASOs, while showing no or very low binding to other ASOs | 198 |  |  |  |  |  |
|  | oos | B3 |  |  |  |  |  |  | binds to all of the tested ASOs and antibody-ASO conjugates with good affinity | 0.0379 | 26.2 | 0.0414 | < 1 | 0.169 | 0.116 |
